Measured values reported in patent publication US20210230280A1 (EXIRIS S R L, published 2021).
Several values for one entry are separate records, joined by “and”; a condition that tells them apart may be missing. Identical values can stand only once.

Columns and labels:
murine FGFR4 = target: T1, murine FGFR4 (mouse, UniProt Q03142 17-799); assay: told with the epitope alignment
T1 construct: whole, on cells; full-length, on transfected BOSC23 cells; also called murine receptor; murine FL FGFR4
T1 sequence (looked up): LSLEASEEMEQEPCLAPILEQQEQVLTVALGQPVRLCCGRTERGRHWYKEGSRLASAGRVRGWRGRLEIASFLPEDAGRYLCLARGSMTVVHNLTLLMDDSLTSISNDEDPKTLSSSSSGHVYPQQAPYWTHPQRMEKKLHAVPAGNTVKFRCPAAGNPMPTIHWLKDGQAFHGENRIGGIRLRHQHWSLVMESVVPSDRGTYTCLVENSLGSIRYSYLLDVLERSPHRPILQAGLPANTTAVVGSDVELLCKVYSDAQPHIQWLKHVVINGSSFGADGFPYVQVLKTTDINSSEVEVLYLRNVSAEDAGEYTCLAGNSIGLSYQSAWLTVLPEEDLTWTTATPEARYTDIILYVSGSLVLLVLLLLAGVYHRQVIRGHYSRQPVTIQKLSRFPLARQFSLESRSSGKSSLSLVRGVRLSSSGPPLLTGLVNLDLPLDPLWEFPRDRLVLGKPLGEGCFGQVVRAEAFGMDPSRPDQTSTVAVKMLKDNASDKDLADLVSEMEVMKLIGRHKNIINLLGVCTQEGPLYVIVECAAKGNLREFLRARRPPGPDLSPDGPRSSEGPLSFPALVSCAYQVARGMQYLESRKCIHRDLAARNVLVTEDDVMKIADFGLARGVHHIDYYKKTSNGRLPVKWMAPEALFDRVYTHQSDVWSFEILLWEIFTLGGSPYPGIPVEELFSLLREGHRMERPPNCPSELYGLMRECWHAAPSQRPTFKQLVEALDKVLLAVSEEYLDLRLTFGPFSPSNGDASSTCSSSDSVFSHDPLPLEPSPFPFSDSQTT

[1] = target: T2, human chimeric receptor FGFR3-Fc (R&D Systems) (human, UniProt P22607 23-375); assay: solid phase receptor binding assay
T2 construct: extracellular domain; not shown: human Fc
T2 sequence (looked up): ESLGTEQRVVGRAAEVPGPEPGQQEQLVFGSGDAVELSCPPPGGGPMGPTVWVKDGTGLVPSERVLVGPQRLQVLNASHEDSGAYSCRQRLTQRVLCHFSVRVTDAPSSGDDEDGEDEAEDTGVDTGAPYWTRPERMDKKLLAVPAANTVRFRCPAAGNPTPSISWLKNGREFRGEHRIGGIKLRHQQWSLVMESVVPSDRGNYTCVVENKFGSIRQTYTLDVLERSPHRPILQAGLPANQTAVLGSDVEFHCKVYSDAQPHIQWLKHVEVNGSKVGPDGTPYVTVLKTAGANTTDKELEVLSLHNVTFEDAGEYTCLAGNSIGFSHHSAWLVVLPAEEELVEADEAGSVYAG

[2] = target: T3, human chimeric receptor FGFR4-Fc (R&D Systems) (human, UniProt P22455 22-369); assay: competition ELISA, FGF19 binding to FGFR4-Fc
T3 construct: extracellular domain; bought; also called hFGFR4-Fc; not shown: human IgG Fc
T3 sequence (looked up): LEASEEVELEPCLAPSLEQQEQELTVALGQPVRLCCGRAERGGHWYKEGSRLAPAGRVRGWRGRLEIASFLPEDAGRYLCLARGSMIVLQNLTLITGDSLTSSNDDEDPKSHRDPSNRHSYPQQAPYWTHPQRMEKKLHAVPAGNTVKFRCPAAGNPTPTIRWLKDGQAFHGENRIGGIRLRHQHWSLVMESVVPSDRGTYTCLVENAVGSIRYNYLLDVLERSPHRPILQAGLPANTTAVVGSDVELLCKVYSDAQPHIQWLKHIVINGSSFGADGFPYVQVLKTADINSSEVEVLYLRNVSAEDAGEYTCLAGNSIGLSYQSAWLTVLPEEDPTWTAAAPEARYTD

B1: ch3B6 (antibody, human IgG1, V domains shown)
VH: EVQLVESGGGLVQPGRSLKLSCAASGFTFSNYYMAWVRQAPKKGLEWVATINPSGTRTYYPDSVKGRFTLSRDSAKSSLYLQMNSLKSEDTATFYCARLYNNYAFDYWGQGVMVTVSS
VL: DVQMTQSPALAVSPGERVSISCRASESVSTLMHWYQQKPGQQPKLLIYGTSNLESGVPARFSGSGSGTDFTLNIDPVEADDTATYFCQQSWNDPPTFGGGTKLELK
notes: human-rat chimeric antibody, human IgG1 constant regions and human kappa constant region; also called chimeric 3B6
Murine FGFR4
  binding result: binds
[1]
  binding result: no binding (tested: 9 ug/mL)

B2: Hu3B6a (antibody, human IgG1, V domains shown)
VH: EVQLVESGGGLVQPGGSLRLSCAASGFTFSNYYMSWVRQAPGKGLEWVATINPSGTRTYYPDSVKGRFTISRDNAKNSLYLQMNSLRAEDTAVYYCARLYNNYAFDYWGQGTLVTVSS
VL: DIQMTQSPSSLSASVGDRVTITCRASESISTLLHWYQQKPGKAPKLLIYGTSNLESGVPSRFSGSGSGTDFTLTISSLQPEDFATYYCQQSWNDPPTFGGGTKVEIK
[2]
  IC50: 0.13 µg/mL and 0.87 nM

B3: Hu3B6f (antibody, human IgG1, V domains shown)
VH: EVQLVESGGGLVQPGGSLRLSCAASGFTFSNYYMSWVRQAPGKGLEWVATINPSGTRTYYPDSVKGRFTISRDSAKSSLYLQMNSLRAEDTAVYYCARLYNNYAFDYWGQGTLVTVSS
VL: DIQMTQSPSSLSASVGDRVTITCRASESVSTLMHWYQQKPGKAPKLLIYGTSNLESGVPSRFSGSGSGTDFTLTISSLQPEDFATYYCQQSWNDPPTFGGGTKVEIK
[2]
  IC50: 0.09 µg/mL and 0.6 nM

B4: Hu3B6b (antibody, human IgG1, V domains shown)
VH: EVQLVESGGGLVQPGGSLRLSCAASGFTFSNYYMSWVRQAPGKGLEWVANINPSGTRTYYPDSVKGRFTISRDNAKNSLYLQMNSLRAEDTAVYYCARLYNNYAFDYWGQGTLVTVSS
VL: DIQMTQSPSSLSASVGDRVTITCRASESISTLLHWYQQKPGKAPKLLIYGTSNLESGVPSRFSGSGSGTDFTLTISSLQPEDFATYYCQQSWNDPPTFGGGTKVEIK
[2]
  IC50: 0.4 µg/mL and 2.7 nM

B5: Hu3B6d (antibody, human IgG1, V domains shown)
VH: EVQLVESGGGLVQPGGSLRLSCAASGFTFSNYYMSWVRQAPGKGLEWVATINPSGTRTYYPDSVKGRFTISRDNAKNSLYLQMNSLRAEDTAVYYCARLYNNYAFDYWGQGTLVTVSS
VL: DIQMTQSPSSLSASVGDRVTITCRASESVSTLMHWYQQKPGKAPKLLIYGTSNLESGVPSRFSGSGSGTDFTLTISSLQPEDFATYYCQQSWNDPPTFGGGTKVEIK
[2]
  IC50: 0.03 µg/mL and 0.2 nM

B6: Hu3B6c (antibody, human IgG1, V domains shown)
VH: EVQLVESGGGLVQPGGSLRLSCAASGFTFSNYYMSWVRQAPGKGLEWVATINPSGTRTYYPDSVKGRFTISRDSAKSSLYLQMNSLRAEDTAVYYCARLYNNYAFDYWGQGTLVTVSS
VL: DIQMTQSPSSLSASVGDRVTITCRASESISTLLHWYQQKPGKAPKLLIYGTSNLESGVPSRFSGSGSGTDFTLTISSLQPEDFATYYCQQSWNDPPTFGGGTKVEIK
[2]
  IC50: 0.07 µg/mL and 0.47 nM

B7: Hu3B6e (antibody, human IgG1, V domains shown)
VH: EVQLVESGGGLVQPGGSLRLSCAASGFTFSNYYMSWVRQAPGKGLEWVANINPSGTRTYYPDSVKGRFTISRDNAKNSLYLQMNSLRAEDTAVYYCARLYNNYAFDYWGQGTLVTVSS
VL: DIQMTQSPSSLSASVGDRVTITCRASESVSTLMHWYQQKPGKAPKLLIYGTSNLESGVPSRFSGSGSGTDFTLTISSLQPEDFATYYCQQSWNDPPTFGGGTKVEIK
[2]
  IC50: 0.16 µg/mL and 1 nM
